This sample holds only a part of the variants without activity.

83 variants from the RNAGym collection of RNA variant scans (doi:10.1073/pnas.2313332121) can be followed below.

First the molecules themselves.
B1: TPR 5TU (parent)
chain: GGAUCUUCUCGAUCUAACAAAAAAGACAAAUCUGCCACAAAGCUUGAGAGCAUCUUCGGAUGCAGAGGCGGCAGCCUUCGGUGGCGCGAUAGCGCCAACGUUCUCAACUAUGACACGCAAAACGCGUGCUCCGUUGAAUGGAGUUUAUCAUG

The variants in this series derive from B1. The series is described as follows: polymerase ribozyme fitness, log enrichment relative to wild type (log ratio); higher = more active; in vitro selection for triplet polymerase activity. In a few lines:
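Fitness compares each genotype's enrichment to that of the wild type on a logarithmic scale, averaging replicates with inverse-variance weights. The logarithm is base 2. Enrichment came from Illumina sequencing of input and output libraries after one triplicate round of in vitro selection, which included frozen incubation at −7 °C, of PCR-built, transcribed mutant libraries of each subunit of a heterodimeric triplet polymerase ribozyme. Only genotypes with ≥10 input reads and ≥1 read per output were kept.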
As for U61A C63U C85G A119U C131A, the “polymerase ribozyme fitness (log ratio)” value is not above -4.2.
The same measure for C85G G94A G117U G124U U135G: -3.69; for G86A A122U: -1.33; for U55A G126A: -1.02.
Regarding A17U C51U U55A U78A G81C C123G, the “polymerase ribozyme fitness (log ratio)” value is not above -4.2.
The same measure for G59U C87G C95U U101G C149G: not above -4.2; for C38A C93A G136A: -1.47; for A39U U44G U109C: not above -4.2.
The figure for A26C C51U A66G U77A C149G is not above -4.2.
The figure for U13G G25A G83A is -4.07; for C18U G84A A113G C114U it is -2.6; for A37C A40C G58U G94A A97U G143C it is not above -4.2.
Take A12C C93A: the “polymerase ribozyme fitness (log ratio)” value was -2.68.
Turning to A17U C57A G83C C99G, the “polymerase ribozyme fitness (log ratio)” value was not above -4.2.
As to C79G U82A C87U C103A, the “polymerase ribozyme fitness (log ratio)” value is not above -4.2.
For A26G A37G A40G G58U G65U G74C G88C U101C U151A, the “polymerase ribozyme fitness (log ratio)” value was not above -4.2.
As to G62C C72A A91G A98G C123U, the “polymerase ribozyme fitness (log ratio)” value was not above -4.2.
The same measure for U13C A26U U56A G58C C63A G74U G88C A97U: not above -4.2; for C54U G81A G86U C105A A147U: -4.16; for G50C G80C C93A A98U: not above -4.2.
For C57A G62A G86A A113G A120U U127C G136A A142C, the “polymerase ribozyme fitness (log ratio)” value was not above -4.2.
The same measure for C54G C99G G136U: -3.14; for G94C A137C C149U: -3.76.
The same measure for C27G C85G G88A G100C U148G: not above -4.2; for G81A G92A U101A: -3.21.
The figure for A26U U56A A98G is -1.83; for U45A C76U C125G it is -3.81; for A28G C93U C118A it is not above -4.2.
C35A A107U C108U: the “polymerase ribozyme fitness (log ratio)” value is -3.61.
The figure for A137G G141C is -2.74; for A12G C35U G83A it is -0.598; for C76A A137G it is -1.07.
The same measure for G25A C35U G84A C87A A91U C118U A142G: not above -4.2.
As to G50A C75U C96A A97U, the “polymerase ribozyme fitness (log ratio)” value is not above -4.2.
As to A41C U56A C87U U135G, the “polymerase ribozyme fitness (log ratio)” value is not above -4.2.
For G143A, the “polymerase ribozyme fitness (log ratio)” value is -0.315.
Regarding C116A A142C, the “polymerase ribozyme fitness (log ratio)” value is -3.92.
On to C38U G59C G81C C95G C116G, for which the “polymerase ribozyme fitness (log ratio)” value is -1.71.
With G94C G124U G143U, the “polymerase ribozyme fitness (log ratio)” value is -3.6.
Turning to G11A U55A, the “polymerase ribozyme fitness (log ratio)” value is -1.11.
The figure for G86U C99G is -3.67.
The figure for A49U G59A C85A is -3.41; for A22U G86A G92U it is -1.74.
The figure for C38G C85A G94U C103G is -2.31.
Consider A23G C32G C57U G74A C93U U101G A137U, for which the “polymerase ribozyme fitness (log ratio)” value is not above -4.2.
The same measure for A16U C85U U144C: -2.3; for G59C C76A C87G: not above -4.2.
Consider C27A A119U G133C A137G G140U U144G, for which the “polymerase ribozyme fitness (log ratio)” value is not above -4.2.
The same measure for U4C G11U U53C: -2.27.
The same measure for A23U C85A: not above -4.2; for C10U A20U C57A U145C: -3.45.
As for A17C C93U, the “polymerase ribozyme fitness (log ratio)” value is -1.02.
The figure for U45A G65A U82A A106U is -0.414.
The same measure for G143A U145A: -2.03.
The same measure for C54A G86U A110C: not above -4.2; for U55A G71U G117A: -3.07.
As to U78A A91U A138C, the “polymerase ribozyme fitness (log ratio)” value was not above -4.2.
The same measure for U6A A21U C76A G86U: -2.79; for A28C A47C G62C C108G A122C: not above -4.2; for A19U A41C A73U A91C C93U C129G G140U C149U: not above -4.2.
The same measure for A17U C51A G94U A138G A150U: not above -4.2; for G46U G62A C76A C87U G88A C118U U134A: not above -4.2.
The same measure for A64C G83C G141A: not above -4.2; for A19G G94U C96U C116A C125U G133U: not above -4.2.
For the variant C54A C85U C105U A142C, the “polymerase ribozyme fitness (log ratio)” value is -2.12.
The figure for U15C A20U C54U G86U is -1.77; for A23C A47G C96A it is not above -4.2; for A21C G25C A52C A89U C118A A119C it is -3.52.
The same measure for A24U U33G U77A C87U: not above -4.2; for A29G U31C C36U C54G U82C G86C C93U: not above -4.2; for C116A G140U: -4.02.
In the case of U109G U139C A142U, the “polymerase ribozyme fitness (log ratio)” value is -3.41.
On to C51U U55A C75A C85U U101A C114U A115G G124A, for which the “polymerase ribozyme fitness (log ratio)” value was not above -4.2.
The figure for U44A C54U U82G C87A C123U is not above -4.2.
Consider U56A U82G C87G A91C, for which the “polymerase ribozyme fitness (log ratio)” value was not above -4.2.
The figure for A39C A40G G50C C75A C85G is not above -4.2.
A16U A19C C57U G71C U134G G141U: the “polymerase ribozyme fitness (log ratio)” value was not above -4.2.
Turning to U4C A21G G42A G48C G50C A64U G84C U102G U127A, the “polymerase ribozyme fitness (log ratio)” value was not above -4.2.
The figure for A21U C38A C57U U102G A119U is not above -4.2; for A26U C35A U104G A150C it is not above -4.2; for C93U C99G G136A U145G it is -1.59.
The figure for A73G U77G C103G G136U is not above -4.2.
The figure for A26U G50C is not above -4.2.
